{"source": "paper PMC6821130", "key": {"[1]": {"molecular_target": "6XHis-PilT (Vibrio cholerae)", "assay": "negative-stain electron microscopy"}, "[2]": {"molecular_target": "PilT^K136A (full length, fused to the T18 or T25 fragment of adenylate cyclase)", "assay": "BACTH Miller assay", "details": "read off a plot"}, "[3]": {"molecular_target": "PilC (full length, fused to the T18 or T25 fragment of adenylate cyclase) (UniProt Q9X4G9)", "sequence (Q9X4G9 whole entry, the tested form may be a part)": "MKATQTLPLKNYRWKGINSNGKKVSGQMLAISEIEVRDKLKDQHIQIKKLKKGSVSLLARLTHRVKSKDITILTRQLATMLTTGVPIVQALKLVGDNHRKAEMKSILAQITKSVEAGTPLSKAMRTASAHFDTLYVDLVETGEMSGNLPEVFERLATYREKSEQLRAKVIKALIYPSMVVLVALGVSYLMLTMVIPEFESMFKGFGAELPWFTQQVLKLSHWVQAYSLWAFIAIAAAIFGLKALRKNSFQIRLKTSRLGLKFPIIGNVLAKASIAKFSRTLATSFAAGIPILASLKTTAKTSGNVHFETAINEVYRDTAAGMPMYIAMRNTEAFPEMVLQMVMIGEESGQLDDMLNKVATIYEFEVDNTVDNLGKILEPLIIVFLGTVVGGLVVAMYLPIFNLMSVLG", "assay": "BACTH Miller assay", "details": "read off a plot"}, "[4]": {"molecular_target": "PilT (full length, fused to the T18 or T25 fragment of adenylate cyclase)", "assay": "BACTH Miller assay", "details": "read off a plot"}, "[5]": {"molecular_target": "PilU (full length, fused to the T18 or T25 fragment of adenylate cyclase)", "assay": "BACTH Miller assay", "details": "read off a plot"}, "[6]": {"molecular_target": "6XHis-PilU (Vibrio cholerae)", "assay": "negative-stain electron microscopy"}, "[7]": {"molecular_target": "6xHis-PilU^K134A (Vibrio cholerae)", "assay": "negative-stain electron microscopy"}, "[8]": {"molecular_target": "6xHis-PilT^K136A (Vibrio cholerae)", "assay": "negative-stain electron microscopy"}, "[9]": {"molecular_target": "PilU^K134A (full length, fused to the T18 or T25 fragment of adenylate cyclase)", "assay": "BACTH Miller assay", "details": "parent: est. 180; read off a plot"}}, "note": "“And” between values parts separate entries of the source, which are not always exact repeats. Identical values can stand only once.", "data": [{"substance": "6XHis-PilT (enzyme)", "values": [{"measurement": "stoichiometry N", "setting": "[1]", "result": 6}]}, {"substance": "m2; m1 PilU:K134A; PilT:K136A", "values": [{"measurement": "response", "setting": "[2]; parent: est. 65", "result": 11, "unit": "Miller Units"}, {"measurement": "response", "setting": "[2]; parent: est. 110", "result": 48, "unit": "Miller Units"}]}, {"substance": "PilT (full length, fused to the T18 or T25 fragment of adenylate cyclase) K136A", "values": [{"measurement": "response", "setting": "[3]; parent: est. 90", "result": 80, "unit": "Miller Units"}, {"measurement": "response", "setting": "[3]; parent: est. 120", "result": 110, "unit": "Miller Units"}, {"measurement": "response", "setting": "[4]; parent: est. 170", "result": "170 Miller Units and 160 Miller Units"}, {"measurement": "response", "setting": "[2]; parent: est. 170", "result": 85, "unit": "Miller Units"}, {"measurement": "response", "setting": "[5]; parent: est. 65", "result": 8.5, "unit": "Miller Units"}, {"measurement": "response", "setting": "[5]; parent: est. 110", "result": 78, "unit": "Miller Units"}]}, {"substance": "6XHis-PilU (enzyme)", "values": [{"measurement": "stoichiometry N", "setting": "[6]", "result": 6}]}, {"substance": "6xHis-PilU^K134A (enzyme)", "values": [{"measurement": "stoichiometry N", "setting": "[7]", "result": 6}]}, {"substance": "6xHis-PilT^K136A (enzyme)", "values": [{"measurement": "stoichiometry N", "setting": "[8]", "result": 6}]}, {"substance": "PilU (full length, fused to the T18 or T25 fragment of adenylate cyclase) K134A", "values": [{"measurement": "response", "setting": "[3]; parent: est. 55", "result": 75, "unit": "Miller Units"}, {"measurement": "response", "setting": "[3]; parent: est. 100", "result": 110, "unit": "Miller Units"}, {"measurement": "response", "setting": "[4]; parent: est. 65", "result": 85, "unit": "Miller Units"}, {"measurement": "response", "setting": "[4]; parent: est. 110", "result": 78, "unit": "Miller Units"}, {"measurement": "response", "setting": "[5]; parent: est. 180", "result": "180 Miller Units and 220 Miller Units"}, {"measurement": "response", "setting": "[9]", "result": 140, "unit": "Miller Units"}]}]}
